# Assay: yeast display, Sf9 membrane polyspecificity reagent, FACS + sequencing; frameworks hold sequencing errors
# Procedure, shortened: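 Nanobodies came from a synthetic yeast display library in Saccharomyces cerevisiae BJ5465, induced with galactose for 36–48 hours and stained for 1 hour at 4 °C with 10% biotinylated, detergent-solubilized Sf9 membrane reagent. Cells were enriched on streptavidin microbeads and then FACS-sorted, with low and high (top ~1%) gates set on anti-HA fluorescence for expression and streptavidin fluorescence for reagent binding. Each polyreactivity label reflects the gate a clone came from. Genes were amplified by colony PCR, sequenced by MiSeq 2 × 250 and filtered by CDR length.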
row,Sequence,polyreactivity (PSR sort gate)
1,QVQRVESGGGLVQAGGSLRLRCAASGRTFMTNAMGWYRQAPGTERELVAAISSGASTNYADSVKGRFTISRDNAKNTVYLQMNSLNPEDTAVYYCGAQLTDYQSKTLSYDYWGQGTQVTVSS,low polyreactivity
2,QVQLVESGGGLVQAGGSLRLSCAASGSIFVPNAMGWSRQALGKERELVAAITYSGVDTYYADSVKGRFTISRDNAKNTVYLQMNSLKPEDTAVYYCAADNGRVGYDYWGQGTQVTVSS,low polyreactivity
3,QVQLVESGGGLVQAGGSHRLSCAASGRIFNNNAMGWYRQAPGTEREFVAAISSGGGSTYYADSVKGRFTISRDNAKNTVYLQMNSLKPEDTAVYYCAARRHGRVDYSQGSRESYYWGQGTQVTVSS,high polyreactivity
4,QVQLVESGGGVVQAGGTLRLSCAASGRIFSYYDMGWYRQAPGKERELVAAITWGGGATYYADSVKGRFTISRDNAKNTVYLLMNSLKPEDTAVYYCAADWSPSIWEYDYWGQGTQVTVSS,low polyreactivity
5,QVQLVESGGGLVQAGGSLRLSCAAYGYTFDSYTIGWYRQAPGKERELVAAITRSGSSTYYADSVKGRFTISRDNAKNTVYLQMNSLKPDDTAVYSCAAGWRRADGIEYWYGYWGQGTQVTVSS,high polyreactivity
6,QVQLVESGGGLVQAGGSLRLSCAASGRIYGANTMGWYRQAPGKERELVAAISWRGTSTYADSVKGRFSISRDNAKNTVYLQMNSLKPEDTAVYYCAARRRGWPQFDYWGQGTQVTVSS,high polyreactivity
7,QVQLVESGGGLVKAGGSLRLSCAASGRTFSSNAMGWNRQAPGKERELVAAISSSGAGTYYADSVKGRFTISRDNAKNTVYFQMTILKPEDSAVYYCAARANSYHSFTSPYDYWGQGTQVTVSS,low polyreactivity
8,QVQLVESGGGLVQAGGSLRLSCAASGTFYKYAMGWYRQAPGKERELVAAISWRGGRTYADSVKGRFKISRDNAKNTVYLQMNSLKPEDTAVYYCNKRFYPEHYYWGQGTQVTVSS,high polyreactivity
9,QVQLVESGGGLVQAGGSLRLSCAASGGTFPTNAMGWYRQAPGKERELVAAITSSGVRTYYADSVKGRFTISRDNAKNTVYLQMNSLKPEDTAVYYCATYSYTWMNYYWGQGTQVTVSS,high polyreactivity
10,QVQLVESGGGLVQAGGSLRLSCAASGFIFRYYAMGWYRQAPGKERELVAAITSRGSSTYYADSVKGRFTISRDNAKNTVYLQMNSLKPEDTAVYYCAARLRGDYVRYDYWGQGTQVTVSS,high polyreactivity
11,QVQLVESGGGLVQAGGSLRLSCAASGSNFGYNALGWYRQAPGKDRELVAAITGSGGSTYYADSVKGRFTISRDNAKNTVYLQMNSLKPEDTAVYYCAHDLFGGPLGYWDYDYWGQGTQVTVSS,low polyreactivity
12,QVQLVESGGGLIQAGGSLRLSCAASGSTFANNAMGWYRQAPGKERELVASITRSGSTYYADSVKGRFTISRDNAKNTVYLQMNSLKPEDTAVYYCAADSRRYGVRFDYWGQGTQVTVSS,low polyreactivity
13,QVQLVESAGGLVQAGGSLSLICAASGSTFVVNALGWYRQAPGKERELVAAITTSGGSTYYADSVKGRFTISRDNAKNTVYLQMNSLKPEDTAVYYCAAETWGYYGYGVDYDYWGQGTQVTVSS,high polyreactivity
14,QGQRVESAGGLVQAGGSLRLSCAASGITFARNVMGWSRQAPGQERELVAAISRGDSTYYADSVKGRFTISRDNAKNTVYLQLNSLKPEDTAVYYCAAAVKHVAYHYNYWGQGTQVTVSS,high polyreactivity
15,QVQLVDSGGGLVQAGGSLRLSCAASGRIFFPNGMGWYRQAPGKERELVATISRIGGSTYYADSVKGRFTISRDNAMNTVYLQRNSLKPEDTAVYYCAAQYSYGVYWTLPYGYNYWGQGTQVTVSS,low polyreactivity
16,QVQLVESGGGLVQAGGSLRLSCAASGRIFRVYALGWSRQAPGKERELVAAITSGGSTYYADSVKGRFTISRDNAKNTVYLQMNSLKPEDSAVYYCAAKRFRYRPGDYWGQGTQVTVSS,high polyreactivity
17,QVQLVESGAGLVQAGGSLRLSCAASGSTFSRYAMGWYRQAPGKERELVAAISSRGGSTYYADSVKGRFTISRDNAKNTVYLQMNSLKPEDTAVYYCNALTSYQNHVYPYDYWGQGTQVTVSS,high polyreactivity
18,QVQLVESGGGLVQAGGSLRLSCAASGSIFWRYAMGWYRQAPGKERELVAAINYSTTRTYYADSVKGRFTISLDNAKNTVYLQMNSLKPEDTAVYYCAADSRVDEGEYWGQGTQVTVSS,high polyreactivity
19,QVQLVESGGGLVQAGGSLRLSCAAYGSTFQPYAMGWYRPATGKEREFVATISGSAGSTYYADSVKGRFKISRDNAKNTVYLQMNSLKPEDTAVDYCNADSGWFGYDYWGQGTQVTVSS,low polyreactivity
20,QVQLVESGGGLVQAGGSLRLSCAATGRTFGVNAMAWYRQAPGKESELVASIRWNGGSTYYADSVKGRFTISRDNAKNTVYLQMNSLKPEDTAVYYCNAVRRYRSREFDYWGQGSQVTVSS,low polyreactivity
21,QVQLVESGGGLVQAGGSLRLSCAASGSTFAYYTMGWYRQAPGKERELVAAITSAGRTSYADSVKGRFTISRDNAKNTVYLQMKSLKPDDTAVYYCAKGRKPGYYYWGQGTQVTVSS,high polyreactivity
22,QVQLVESGVGLVQAGGSLRLSCAASGLTFLWYAMGWYRQAPGKERELVAAITSGGRTKYADSVKGRFTISRDNAKNTVYLQMNSLKPEDTAVYYCAAYTQWWGYDYWGQGTQVSVSS,high polyreactivity
23,QVQLVESGGGLVQAGGSLRLSCAASGRTFNRYAMGWYRQAPGKERELVAVITSDGRTNYADSVKGRFTISRDNAKNTVYLQMNSLKPEDSAVYYCNKRSALSFVYDFDYWGQGTQVTVSS,low polyreactivity
24,QVQLVESGGGLVQAGGSLRLSSAASGFTFAYYAMGWYRQAPGKERELVAAITRGGGRTFYADSVKGRFTISRDNAKNTVYLQMNSLKPEDTAVYYCAAVKDTTNSRGYGYWGQGTQVTVSS,high polyreactivity
25,QVQLVESGGALVQAGGSLRLSCSASGSTLPGYAMVWYRQAPGKERELVAGISTRGGNTYYADSVKGRFTISRDNAKNTVYGQLNSLNPEDTAVYYCATTSSWRYGYWGEGTQVTVSS,high polyreactivity
26,QVQLVESGGGLVQAGGSLRLSCAASGLTLSYYAMGWYRPAPGKEMELVAAISSGGSTYYADSVKGRFTISRDNAKNTVYLQMNSLKPEDTAVYYCAAQWWRLYWEYYYWGQGTQVTVSS,low polyreactivity
27,QVQLVESGGGLVQAGGSLRLTCAASGNTFYGYAMGWYRQAPGKERELVASITLSGDSTYYADSVKGRFTISRDNAKNTVYLQMNSLKPEDTAVYYCAGVYTYPLGYFHYTYDYWGQVTQVTVSS,low polyreactivity
28,QVQLVESGGGLVQAGGSLRLSCAASGSTFGYNAMGWYRQAPGKERELVARITSSGGSTYYADSVKGRFTISRDNAKNTVYLQMNSLKPEDTAVYYCAAGYLSGNYARYGYWGQGTQVTVSS,high polyreactivity
29,QVQLVESGGGLVQAGGSLRLSCAASGRTFKWNPMGWYRQAPGKERELVAAITRSDGRTFYADSVKGRFTISRDNAKNTVYLQMNSLKPEDSAVYYCNALGYRNSVIYSGFDYWGQGTQVTVSS,low polyreactivity
30,QVQLVESGGGLVQAGVSLRLSCAASGRTFVTYAMGWSREAPGKEKEFVAAISRTGGSTDYADSVKGRFTISRDNAKNTVYLQMNSLKPEETAVYYCATTVIVSPSGYLKSYYWGQGTQVTVSS,high polyreactivity

# — the nanobody polyreactivity screen of Harvey et al. (2022)
